Results published in PMC4026020.

T1: MBP-AtTZF1 TZF (Arabidopsis thaliana, UniProt O82307 129-195)
T1 sequence: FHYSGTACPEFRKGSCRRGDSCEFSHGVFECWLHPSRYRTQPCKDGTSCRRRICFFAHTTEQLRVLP

T2: MBP-AtTZF1 RR-TZF (Arabidopsis thaliana, UniProt O82307 86-195)
T2 sequence: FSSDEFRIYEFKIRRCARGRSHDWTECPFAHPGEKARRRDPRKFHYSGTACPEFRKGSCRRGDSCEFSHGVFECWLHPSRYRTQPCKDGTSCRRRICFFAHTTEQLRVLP

T3: GST-AtTZF1 full-length (Arabidopsis thaliana, UniProt O82307 1-315)
T3 sequence: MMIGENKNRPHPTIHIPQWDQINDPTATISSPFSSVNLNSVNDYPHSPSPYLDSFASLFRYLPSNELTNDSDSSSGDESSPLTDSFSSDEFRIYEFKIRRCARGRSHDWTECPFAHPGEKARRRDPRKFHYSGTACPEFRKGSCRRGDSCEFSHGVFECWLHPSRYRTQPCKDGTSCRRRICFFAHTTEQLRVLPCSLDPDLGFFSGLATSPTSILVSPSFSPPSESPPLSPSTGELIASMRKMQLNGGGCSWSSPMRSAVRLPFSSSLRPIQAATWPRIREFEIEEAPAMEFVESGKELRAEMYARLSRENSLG

T4: MBP-AtTZF1 RR (Arabidopsis thaliana, UniProt O82307 86-128)
T4 chain: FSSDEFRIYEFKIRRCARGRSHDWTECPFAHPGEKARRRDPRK


Assays:
MBP-AtTZF1 TZF [1] = molecular target: T1, MBP-AtTZF1 TZF; assay: fluorescence anisotropy
MBP-AtTZF1 RR-TZF [2] = molecular target: T2, MBP-AtTZF1 RR-TZF; assay: fluorescence anisotropy
GST-AtTZF1 full-length = molecular target: T3, GST-AtTZF1 full-length; assay: fluorescence anisotropy
MBP-AtTZF1 RR-TZF [3] = molecular target: T2, MBP-AtTZF1 RR-TZF; assay: EMSA
MBP-AtTZF1 TZF [4] = molecular target: T1, MBP-AtTZF1 TZF; assay: EMSA
MBP-AtTZF1 RR = molecular target: T4, MBP-AtTZF1 RR; assay: EMSA

Binder	Kd (MBP-AtTZF1 RR-TZF [2])	Kd (GST-AtTZF1 full-length)	other results
UUUUUUUUUUUUUUUUUUU (ssRNA) [Fl-polyU]	470 ± 30 nM	2270 ± 190 nM	Kd (MBP-AtTZF1 TZF [1]): 7370 ± 120 nM
UGUUUGUUGUUUGUUUGUU (ssRNA) [MutG]	–	–	binding result (MBP-AtTZF1 RR-TZF [3]): no binding
UAUUUAUUAUUUAUUUAUU (ssRNA) [Fl-ARE19]	410 ± 50 nM	4550 ± 130 nM	–
UAUUUAUUAUUUAUUUAUU (ssRNA) [ARE19]	–	–	binding result (MBP-AtTZF1 TZF [4]): no binding; binding result (MBP-AtTZF1 RR): no binding
